Molecular target: human c-Met on the surface of human tumor cells (human) (UniProt P08581)
Assay: FACS on tumor cells (cell line not named on the sheet), PE-labelled isotype control, FL2 Log; unstained cells 3.48

Sequence of human c-Met on the surface of human tumor cells (human) (P08581 25-1390): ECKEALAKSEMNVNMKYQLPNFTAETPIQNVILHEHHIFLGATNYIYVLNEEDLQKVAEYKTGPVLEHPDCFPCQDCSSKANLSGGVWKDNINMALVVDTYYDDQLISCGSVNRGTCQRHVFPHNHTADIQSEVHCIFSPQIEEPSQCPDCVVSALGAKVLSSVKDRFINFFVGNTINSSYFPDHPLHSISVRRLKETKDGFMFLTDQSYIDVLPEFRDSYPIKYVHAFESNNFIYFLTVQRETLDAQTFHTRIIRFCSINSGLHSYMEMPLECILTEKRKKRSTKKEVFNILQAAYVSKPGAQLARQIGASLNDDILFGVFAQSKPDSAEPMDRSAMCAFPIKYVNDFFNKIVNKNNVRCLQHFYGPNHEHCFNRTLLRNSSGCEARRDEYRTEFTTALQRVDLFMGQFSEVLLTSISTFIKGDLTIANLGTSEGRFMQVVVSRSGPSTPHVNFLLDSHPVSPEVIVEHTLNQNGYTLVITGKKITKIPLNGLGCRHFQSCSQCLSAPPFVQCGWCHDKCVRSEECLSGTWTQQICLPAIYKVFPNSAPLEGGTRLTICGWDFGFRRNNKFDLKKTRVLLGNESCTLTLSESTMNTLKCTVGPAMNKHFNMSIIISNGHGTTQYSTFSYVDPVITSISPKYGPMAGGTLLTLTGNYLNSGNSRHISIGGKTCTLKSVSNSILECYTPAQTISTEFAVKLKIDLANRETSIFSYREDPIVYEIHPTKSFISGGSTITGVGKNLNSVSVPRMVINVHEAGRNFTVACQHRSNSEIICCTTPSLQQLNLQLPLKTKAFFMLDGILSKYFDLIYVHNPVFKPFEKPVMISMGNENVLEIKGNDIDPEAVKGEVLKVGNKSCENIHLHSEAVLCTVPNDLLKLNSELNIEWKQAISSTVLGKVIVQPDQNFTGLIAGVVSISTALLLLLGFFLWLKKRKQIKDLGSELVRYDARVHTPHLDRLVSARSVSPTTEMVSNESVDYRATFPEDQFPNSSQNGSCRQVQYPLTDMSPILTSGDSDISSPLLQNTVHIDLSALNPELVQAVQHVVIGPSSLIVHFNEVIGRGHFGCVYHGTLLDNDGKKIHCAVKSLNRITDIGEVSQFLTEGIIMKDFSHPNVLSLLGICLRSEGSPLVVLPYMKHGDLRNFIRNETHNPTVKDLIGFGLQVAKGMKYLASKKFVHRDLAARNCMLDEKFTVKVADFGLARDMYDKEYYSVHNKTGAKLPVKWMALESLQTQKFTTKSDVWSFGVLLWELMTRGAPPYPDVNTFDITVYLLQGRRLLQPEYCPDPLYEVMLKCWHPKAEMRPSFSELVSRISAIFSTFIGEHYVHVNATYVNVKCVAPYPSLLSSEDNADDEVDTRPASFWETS

Question: mIgG1-PE (antibody) was tested. Which Mean fluorescence did it give?
Answer: 6.47

From patent US20140349310A1
